{"source": "patent US7265263B1", "about": "“Potato transcription factors, methods of use thereof, and a method for enhancing tuber development” (Iowa State University Research Foundation, Inc., priority 2002, dated 2007)", "key": {"[1]": {"system": "potato ga20ox1 promoter (P1, P2, P3) and first intron", "experiment": "Gel retardation assay with ga20ox1 promoter regions and first intron", "assay_type": "binding", "source_text": "The first intron with partial flanking exon sequence (450 bp) of potato ga20ox1 and its promoter (981 bp, provided by Dr. Salomé Prat, CSIC Cantoblanco Campus, Univ. of Madrid, Spain) were used for gel mobility shift assays. Polymerase chain reaction (PCR) was used to amplify three regions of the promoter: -981 to 636 (P1), -660 to 307 (P2), and -331 to 0 (P3). About a 25-bp overlap was maintained between P1 and P2 or P2 and P3 in the chance that the protein-binding site would span the overlapped region. The first intron of this gene was amplified from potato genomic DNA by using PCR and the oligos 5′-[…]-3′ (SEQ ID NO:21) and 5′-[…]-3′ (SEQ ID NO:22) as primers. These primers were designed based on the site of the first intron of the tobacco GA20 oxidase gene Ntc12. The four fragments were purified on a 1.4% agarose gel and labeled with α^32P-dATP using Klenow fragment. […]\nIn the competition assays, unlabeled double-stranded DNA fragments (10×, 25×, 50×, 100×) were incubated with the recombinant protein before the addition of the radioactive probe. The dissociation rates were determined by adding 500-fold more cold DNA fragments to the DNA-binding reactions that were being incubated on ice, and loaded onto the running gel every 10 minutes. […]"}, "CaMV 35S promoter": {"system": "CaMV 35S promoter", "experiment": "Transcription assay, GUS reporter driven by CaMV 35S promoter in tobacco protoplasts", "assay_type": "cell-based, cauliflower mosaic virus", "method": "FIGS. 24A-C show schematics of constructs (FIG. 24A) and the repression effect of StBEL-05 and POTH1 on the ga20ox1 promoter (FIG. 24B) and on the 35S CaMV promoter (FIG. 24C). The construct with the LUC gene under the control of the cauliflower mosaic virus (CaMV) 35S promoter was used as an internal control. Each transfection was performed three times. Relative GUS-LUC activity was calculated with reporter alone set as 100%. Data are means±SE.\nFor each transfection analysis, 700 μL of tobacco protoplasts (prepared as described above) were mixed with 30 μL 2 M KCl and plasmid DNA in an electroporation cuvette with 0.4-cm electrode gap. […]\n(§1) Luciferase assays were performed by injecting 100-μL luciferase substrate (Promega, Madison, Wis.) into 20 μL of extract and measuring the emitted photons for 15 seconds in a TD-20 luminometer (Turner Designs, Sunnyvale, Calif.). […] A fluorescence multiwell plate reader, Fluoroskan II (MTX labs, Vienna, Va.), was used to measure GUS activity at 365 nm (excitation) and 455 nm (emission). Each sample was measured three times for both LUC and GUS activity. Relative GUS-LUC activity was calculated by dividing the ratio of GUS activity to LUC activity from different effectors with the ratio from reporter plasmid alone. Relative activities calculated from three transfection replications were presented as a mean±SE."}, "POTH1": {"system": "POTH1", "experiment": "In vitro binding assay (immunoprecipitation) with POTH1", "design": "species or system Solanum tuberosum", "details": "in vitro", "method": "In vitro binding experiments were performed as described by Ni et al., “PIF3, a Phytochrome-Interacting Factor Necessary for Normal Photoinduced Signal Transduction, is a Novel Basic Helix-Loop-Helix Protein,” Cell 95:657-667 (1998), which is hereby incorporated by reference in its entirety. The full-length sequence for POTH1 was cloned into a pET17b/GAD fusion cassette and transcribed under the control of the T7 promoter. […] Each 50 μl TnT reaction contained 2.0 μg of template plasmid DNA and 20 μmol (20 μCi) of labeled ^35S-methionine. The POTH1:GAD/BEL complex was immunoprecipitated with anti-GAD antibodies (Santa Cruz Biotechnology, Calif.). The proteins from the pellet (one-half the fraction) and for the prey (one-fourth of the reaction volume) were resolved on a 10% SDS-PAGE gel and visualized by autoradiography."}, "ga20ox1 promoter": {"system": "ga20ox1 promoter", "experiment": "Transcription assay, GUS reporter driven by ga20ox1 promoter in tobacco protoplasts", "assay_type": "cell-based, potato", "source_text": "The cauliflower mosaic virus (CaMV) 35S promoter in pBI221 (Clontech, Palo Alto, Calif.) was replaced by an enhancer fragment (-832 to -50) of the 35S promoter plus 980 bp of the ga20ox1 promoter to generate the pGAOP::β-glucuronidase (GUS) reporter construct. With this construct, the reporter GUS transcription level is augmented but its transcription may still be affected by the ga20ox1 promoter. A CaMV 35S promoter-driven luciferase (LUC) construct 35S-LUC (obtained from Dr. Takahashi, Dept. of Biological Sciences, Graduate School of Science, Univ. of Tokyo, Japan) was used as an internal control. Effector constructs were also generated by using pBI221 vector as a backbone, with the GUS gene replaced by the full-length cDNAs of either StBEL-05 or POTH1, downstream of the CaMV 35S promoter. Truncated cDNAs that encode the N-terminal protein-binding domains of StBEL-05 or POTH1 were used to generate the dominant negative constructs, StBEL5ΔC295 and POTH1ΔC122, respectively. The reporter construct with the mutated promoter was generated by site-directed PCR mutagenesis with oligos 5′-CTATTTGACTTC*ACACGGTTATTT-3′ (SEQ ID NO:23) and 5′-AAATAACCGTGTG*AAGTCAAATAG-3′ (SEQ ID NO:24).\nFully expanded leaves from three- to four-week-old tobacco plants were excised and placed in K3 basal media (Kao et al., “Nutritional Requirements for Growth of Vicia hajastana Cells and Protoplasts at a Very Low Density in Liquid Media,” Planta 126:105-110 (1975), which is hereby incorporated by reference in its entirety) supplemented with 0.4 M sucrose, 0.25% (w-v) cellulases (Karlan Research Products, Santa Rosa, CA), and 0.05% (w-v) macerases (Calbiochem, La Jolla, Calif.) and incubated for overnight at 28° C. After incubation, the liberated protoplasts were filtered through sterile cheesecloth into a Babcock bottle, and centrifuged for 10 minutes at 1000 rpm. Protoplasts were collected from the bottleneck area and washed once in K3 media with 0.4 M sucrose and resuspended in K3 media containing 0.4 M glucose to a final concentration of 4×10^6 protoplasts per milliliter. […]\nas §1"}}}
{"molecule": "POTH1: KNOX transcription factor of potato, SEQ ID NO:17, 345 residues (protein, listed as Solanum tuberosum) MDDEMYGFHSTRDDYADKALMSPENLMMQTEYNNFHNYTNSSILTSNPMMFGSDDIQLSSEQTNSFSTMTLQNNDNIYQIRSGNCGGGSGSGGSSKDHNDNNNNNEDYDEDGSNVIKAKIVSHPYYPKLLNAYIDCQKVGAPAGIVNLLEEIRQQTDFRKPNATSICIGADPELDEFMETYCDILLKYKSDLSRPFDEATTFLNKIEMQLGNLCKDDGGVSSDEELSCGEADASMRSEDNELKDRLLRKFGSHLSSLKLEFSKKKKKGKLPKEARQMLLAWWDDHFRWPYPTEADKNSLAESTGLDPKQINNWFINQRKRHWKPSENMQLAVMDNLSSQFFSSDD", "values": [{"measurement": "binding to ga20ox1 regulatory regions (mobility shift)", "setting": "[1]", "result": "only formed a complex with P1"}, {"measurement": "effect on the activity of the CaMV 35S promoter", "setting": "CaMV 35S promoter", "result": "Neither StBEL-05 nor POTH1 showed any effect"}, {"measurement": "homodimer formation", "setting": "POTH1", "result": "did not form homodimers in vitro"}, {"measurement": "relative GUS-LUC activity of the pGAOP::GUS reporter construct", "setting": "ga20ox1 promoter; co-transfected effector, reporter alone = 100%", "result": "decreased by more than half"}, {"measurement": "repression of promoter activity, reporter with point mutation in the binding site", "setting": "ga20ox1 promoter; mutated ga20ox1 promoter", "result": "no detectable repression"}]}
